Activity data for 1 substance are collected here from US6048719.

This series concerns DraIII restriction endonuclease (R.DraIII) (Deinococcus radiophilus). In words: cleavage_in_vitro. The note with it: Source-15Q fraction 11; DraIII activity assayed on lambda DNA.

lambda DNA had an activity of 121000 u/ml.
